The record followed here is patent US20250339531A1 (FRED HUTCHINSON CANCER CENTER, published 2025).

Assay [1] concerns the target T1, Immunoglobulin kappa variable 2-40 (Homo sapiens).
T1 construct: also called IGKV2-40
Nature of the assay: anti-FLAG co-IP LC-MS, exp 3, +IFNg +Dox.

In assay [2] the target is ATP-dependent RNA helicase DDX3X (Homo sapiens, UniProt O00571 2-662). Put plainly: anti-FLAG co-IP LC-MS, exp 3, +IFNg +Dox.
Assay [3] has as its target T2, Nuclease-sensitive element-binding protein 1 (Fragment) (Homo sapiens, UniProt P67809 2-324).
T2 construct: also called YBX1
Put plainly: anti-FLAG co-IP LC-MS, exp 3, +IFNg +Dox.

Assay [4] deals with T3, Uncharacterized protein (Fragment) (Homo sapiens).
T3 construct: also called NA (Homology to TAP2)
Put plainly: anti-FLAG co-IP LC-MS, exp 3, +IFNg +Dox.

The target of assay [5] is T1, Immunoglobulin kappa variable 2-40. Put plainly: anti-FLAG co-IP LC-MS, exp 4, +Dox +IFNG.
Assay [6] deals with T4, DNA-dependent protein kinase catalytic subunit (Homo sapiens, UniProt P78527 1-4128).
T4 construct: also called PRKDC
Nature of the assay: anti-FLAG co-IP LC-MS, exp 4, +Dox +IFNG.

Assay [7] addresses T2, Nuclease-sensitive element-binding …. Nature of the assay: anti-FLAG co-IP LC-MS, exp 4, +Dox +IFNG.
Assay [8] concerns the target T5, Heterogeneous nuclear ribonucleoprotein M (Homo sapiens, UniProt P52272 2-730).
T5 construct: also called HNRNPM
T5 sequence (looked up): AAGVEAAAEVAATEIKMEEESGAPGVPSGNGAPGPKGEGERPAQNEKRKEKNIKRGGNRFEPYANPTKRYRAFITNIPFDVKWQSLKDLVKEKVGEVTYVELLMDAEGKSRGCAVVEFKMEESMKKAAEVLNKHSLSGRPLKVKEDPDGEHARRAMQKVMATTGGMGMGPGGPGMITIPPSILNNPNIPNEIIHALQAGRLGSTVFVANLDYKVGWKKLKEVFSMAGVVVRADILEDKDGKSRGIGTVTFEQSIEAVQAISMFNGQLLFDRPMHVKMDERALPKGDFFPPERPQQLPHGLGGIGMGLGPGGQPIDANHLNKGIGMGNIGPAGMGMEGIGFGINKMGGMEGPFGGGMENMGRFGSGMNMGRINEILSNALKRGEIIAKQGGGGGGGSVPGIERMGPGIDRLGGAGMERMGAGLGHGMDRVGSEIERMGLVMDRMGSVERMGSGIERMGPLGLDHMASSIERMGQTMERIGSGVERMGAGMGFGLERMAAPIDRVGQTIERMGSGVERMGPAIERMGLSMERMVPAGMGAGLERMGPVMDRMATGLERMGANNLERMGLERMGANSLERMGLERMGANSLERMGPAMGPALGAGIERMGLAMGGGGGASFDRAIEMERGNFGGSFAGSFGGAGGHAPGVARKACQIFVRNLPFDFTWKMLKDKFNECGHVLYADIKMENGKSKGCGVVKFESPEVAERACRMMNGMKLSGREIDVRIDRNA
Put plainly: anti-FLAG co-IP LC-MS, exp 4, +Dox +IFNG.

Assay [9] concerns the target T6, Polyadenylate-binding protein 1 (Homo sapiens, UniProt P11940 1-636).
T6 construct: also called PABPC1
Put plainly: anti-FLAG co-IP LC-MS, exp 4, +Dox +IFNG.

The target of the next assay is T7, Nucleolin (Homo sapiens, UniProt P19338 2-710).
T7 construct: also called NCL
Nature of the assay: anti-FLAG co-IP LC-MS, exp 4, +Dox +IFNG.

Assay [10] concerns the target T8, Cyclin-dependent kinase 4 (Homo sapiens, UniProt P11802 2-303).
T8 construct: also called CDK4
Put plainly: anti-FLAG co-IP LC-MS, exp 4, +Dox +IFNG.

Assay [11] concerns the target T9, Signal transducer and activator of transcription 1-alpha/beta (Homo sapiens, UniProt P42224 2-750).
T9 construct: also called STAT1
T9 sequence (looked up): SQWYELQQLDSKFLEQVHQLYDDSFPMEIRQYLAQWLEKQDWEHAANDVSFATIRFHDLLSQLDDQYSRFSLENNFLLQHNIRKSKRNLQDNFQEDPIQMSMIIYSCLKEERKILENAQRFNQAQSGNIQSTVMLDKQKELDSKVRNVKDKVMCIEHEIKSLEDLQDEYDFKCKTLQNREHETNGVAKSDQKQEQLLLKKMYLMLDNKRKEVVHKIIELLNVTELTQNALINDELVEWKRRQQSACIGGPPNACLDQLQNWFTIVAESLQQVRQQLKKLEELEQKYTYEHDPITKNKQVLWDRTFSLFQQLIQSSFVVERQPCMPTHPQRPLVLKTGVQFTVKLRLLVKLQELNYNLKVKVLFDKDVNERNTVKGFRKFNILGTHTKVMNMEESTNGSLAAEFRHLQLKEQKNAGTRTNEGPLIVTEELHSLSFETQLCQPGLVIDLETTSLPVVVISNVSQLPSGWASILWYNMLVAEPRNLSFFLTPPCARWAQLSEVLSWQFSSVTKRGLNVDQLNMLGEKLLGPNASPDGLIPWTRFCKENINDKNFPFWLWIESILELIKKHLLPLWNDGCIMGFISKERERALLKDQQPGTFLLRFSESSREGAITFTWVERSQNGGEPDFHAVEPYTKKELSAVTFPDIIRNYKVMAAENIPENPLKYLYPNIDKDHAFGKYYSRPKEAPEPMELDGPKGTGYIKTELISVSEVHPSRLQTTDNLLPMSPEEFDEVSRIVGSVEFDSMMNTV
Nature of the assay: anti-FLAG co-IP LC-MS, exp 4, +Dox +IFNG.

Assay [12] concerns the target T3, Uncharacterized protein (Fragment). Nature of the assay: anti-FLAG co-IP LC-MS, exp 4, +Dox +IFNG.
Assay [13] concerns the target T10, cDNA FLJ56329, highly similar to Myosin light polypeptide 6 (Homo sapiens).
T10 construct: also called MYL6
Put plainly: anti-FLAG co-IP LC-MS, exp 4, +Dox +IFNG.

T1 sequence (A0A087WW87 20-121): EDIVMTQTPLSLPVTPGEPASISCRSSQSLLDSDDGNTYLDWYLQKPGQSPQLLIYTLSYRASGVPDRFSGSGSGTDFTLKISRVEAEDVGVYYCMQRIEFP
T2 sequence (P67809 2-324 limits assumed): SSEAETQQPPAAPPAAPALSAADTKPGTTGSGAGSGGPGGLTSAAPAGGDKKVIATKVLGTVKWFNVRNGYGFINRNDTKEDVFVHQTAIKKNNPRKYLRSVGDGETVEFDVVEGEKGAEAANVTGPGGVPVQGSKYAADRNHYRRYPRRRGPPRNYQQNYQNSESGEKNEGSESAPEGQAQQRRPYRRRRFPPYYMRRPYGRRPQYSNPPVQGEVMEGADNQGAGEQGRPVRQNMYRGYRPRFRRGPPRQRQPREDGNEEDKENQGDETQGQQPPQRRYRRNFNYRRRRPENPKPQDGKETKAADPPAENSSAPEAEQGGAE
T4 sequence (P78527 whole entry): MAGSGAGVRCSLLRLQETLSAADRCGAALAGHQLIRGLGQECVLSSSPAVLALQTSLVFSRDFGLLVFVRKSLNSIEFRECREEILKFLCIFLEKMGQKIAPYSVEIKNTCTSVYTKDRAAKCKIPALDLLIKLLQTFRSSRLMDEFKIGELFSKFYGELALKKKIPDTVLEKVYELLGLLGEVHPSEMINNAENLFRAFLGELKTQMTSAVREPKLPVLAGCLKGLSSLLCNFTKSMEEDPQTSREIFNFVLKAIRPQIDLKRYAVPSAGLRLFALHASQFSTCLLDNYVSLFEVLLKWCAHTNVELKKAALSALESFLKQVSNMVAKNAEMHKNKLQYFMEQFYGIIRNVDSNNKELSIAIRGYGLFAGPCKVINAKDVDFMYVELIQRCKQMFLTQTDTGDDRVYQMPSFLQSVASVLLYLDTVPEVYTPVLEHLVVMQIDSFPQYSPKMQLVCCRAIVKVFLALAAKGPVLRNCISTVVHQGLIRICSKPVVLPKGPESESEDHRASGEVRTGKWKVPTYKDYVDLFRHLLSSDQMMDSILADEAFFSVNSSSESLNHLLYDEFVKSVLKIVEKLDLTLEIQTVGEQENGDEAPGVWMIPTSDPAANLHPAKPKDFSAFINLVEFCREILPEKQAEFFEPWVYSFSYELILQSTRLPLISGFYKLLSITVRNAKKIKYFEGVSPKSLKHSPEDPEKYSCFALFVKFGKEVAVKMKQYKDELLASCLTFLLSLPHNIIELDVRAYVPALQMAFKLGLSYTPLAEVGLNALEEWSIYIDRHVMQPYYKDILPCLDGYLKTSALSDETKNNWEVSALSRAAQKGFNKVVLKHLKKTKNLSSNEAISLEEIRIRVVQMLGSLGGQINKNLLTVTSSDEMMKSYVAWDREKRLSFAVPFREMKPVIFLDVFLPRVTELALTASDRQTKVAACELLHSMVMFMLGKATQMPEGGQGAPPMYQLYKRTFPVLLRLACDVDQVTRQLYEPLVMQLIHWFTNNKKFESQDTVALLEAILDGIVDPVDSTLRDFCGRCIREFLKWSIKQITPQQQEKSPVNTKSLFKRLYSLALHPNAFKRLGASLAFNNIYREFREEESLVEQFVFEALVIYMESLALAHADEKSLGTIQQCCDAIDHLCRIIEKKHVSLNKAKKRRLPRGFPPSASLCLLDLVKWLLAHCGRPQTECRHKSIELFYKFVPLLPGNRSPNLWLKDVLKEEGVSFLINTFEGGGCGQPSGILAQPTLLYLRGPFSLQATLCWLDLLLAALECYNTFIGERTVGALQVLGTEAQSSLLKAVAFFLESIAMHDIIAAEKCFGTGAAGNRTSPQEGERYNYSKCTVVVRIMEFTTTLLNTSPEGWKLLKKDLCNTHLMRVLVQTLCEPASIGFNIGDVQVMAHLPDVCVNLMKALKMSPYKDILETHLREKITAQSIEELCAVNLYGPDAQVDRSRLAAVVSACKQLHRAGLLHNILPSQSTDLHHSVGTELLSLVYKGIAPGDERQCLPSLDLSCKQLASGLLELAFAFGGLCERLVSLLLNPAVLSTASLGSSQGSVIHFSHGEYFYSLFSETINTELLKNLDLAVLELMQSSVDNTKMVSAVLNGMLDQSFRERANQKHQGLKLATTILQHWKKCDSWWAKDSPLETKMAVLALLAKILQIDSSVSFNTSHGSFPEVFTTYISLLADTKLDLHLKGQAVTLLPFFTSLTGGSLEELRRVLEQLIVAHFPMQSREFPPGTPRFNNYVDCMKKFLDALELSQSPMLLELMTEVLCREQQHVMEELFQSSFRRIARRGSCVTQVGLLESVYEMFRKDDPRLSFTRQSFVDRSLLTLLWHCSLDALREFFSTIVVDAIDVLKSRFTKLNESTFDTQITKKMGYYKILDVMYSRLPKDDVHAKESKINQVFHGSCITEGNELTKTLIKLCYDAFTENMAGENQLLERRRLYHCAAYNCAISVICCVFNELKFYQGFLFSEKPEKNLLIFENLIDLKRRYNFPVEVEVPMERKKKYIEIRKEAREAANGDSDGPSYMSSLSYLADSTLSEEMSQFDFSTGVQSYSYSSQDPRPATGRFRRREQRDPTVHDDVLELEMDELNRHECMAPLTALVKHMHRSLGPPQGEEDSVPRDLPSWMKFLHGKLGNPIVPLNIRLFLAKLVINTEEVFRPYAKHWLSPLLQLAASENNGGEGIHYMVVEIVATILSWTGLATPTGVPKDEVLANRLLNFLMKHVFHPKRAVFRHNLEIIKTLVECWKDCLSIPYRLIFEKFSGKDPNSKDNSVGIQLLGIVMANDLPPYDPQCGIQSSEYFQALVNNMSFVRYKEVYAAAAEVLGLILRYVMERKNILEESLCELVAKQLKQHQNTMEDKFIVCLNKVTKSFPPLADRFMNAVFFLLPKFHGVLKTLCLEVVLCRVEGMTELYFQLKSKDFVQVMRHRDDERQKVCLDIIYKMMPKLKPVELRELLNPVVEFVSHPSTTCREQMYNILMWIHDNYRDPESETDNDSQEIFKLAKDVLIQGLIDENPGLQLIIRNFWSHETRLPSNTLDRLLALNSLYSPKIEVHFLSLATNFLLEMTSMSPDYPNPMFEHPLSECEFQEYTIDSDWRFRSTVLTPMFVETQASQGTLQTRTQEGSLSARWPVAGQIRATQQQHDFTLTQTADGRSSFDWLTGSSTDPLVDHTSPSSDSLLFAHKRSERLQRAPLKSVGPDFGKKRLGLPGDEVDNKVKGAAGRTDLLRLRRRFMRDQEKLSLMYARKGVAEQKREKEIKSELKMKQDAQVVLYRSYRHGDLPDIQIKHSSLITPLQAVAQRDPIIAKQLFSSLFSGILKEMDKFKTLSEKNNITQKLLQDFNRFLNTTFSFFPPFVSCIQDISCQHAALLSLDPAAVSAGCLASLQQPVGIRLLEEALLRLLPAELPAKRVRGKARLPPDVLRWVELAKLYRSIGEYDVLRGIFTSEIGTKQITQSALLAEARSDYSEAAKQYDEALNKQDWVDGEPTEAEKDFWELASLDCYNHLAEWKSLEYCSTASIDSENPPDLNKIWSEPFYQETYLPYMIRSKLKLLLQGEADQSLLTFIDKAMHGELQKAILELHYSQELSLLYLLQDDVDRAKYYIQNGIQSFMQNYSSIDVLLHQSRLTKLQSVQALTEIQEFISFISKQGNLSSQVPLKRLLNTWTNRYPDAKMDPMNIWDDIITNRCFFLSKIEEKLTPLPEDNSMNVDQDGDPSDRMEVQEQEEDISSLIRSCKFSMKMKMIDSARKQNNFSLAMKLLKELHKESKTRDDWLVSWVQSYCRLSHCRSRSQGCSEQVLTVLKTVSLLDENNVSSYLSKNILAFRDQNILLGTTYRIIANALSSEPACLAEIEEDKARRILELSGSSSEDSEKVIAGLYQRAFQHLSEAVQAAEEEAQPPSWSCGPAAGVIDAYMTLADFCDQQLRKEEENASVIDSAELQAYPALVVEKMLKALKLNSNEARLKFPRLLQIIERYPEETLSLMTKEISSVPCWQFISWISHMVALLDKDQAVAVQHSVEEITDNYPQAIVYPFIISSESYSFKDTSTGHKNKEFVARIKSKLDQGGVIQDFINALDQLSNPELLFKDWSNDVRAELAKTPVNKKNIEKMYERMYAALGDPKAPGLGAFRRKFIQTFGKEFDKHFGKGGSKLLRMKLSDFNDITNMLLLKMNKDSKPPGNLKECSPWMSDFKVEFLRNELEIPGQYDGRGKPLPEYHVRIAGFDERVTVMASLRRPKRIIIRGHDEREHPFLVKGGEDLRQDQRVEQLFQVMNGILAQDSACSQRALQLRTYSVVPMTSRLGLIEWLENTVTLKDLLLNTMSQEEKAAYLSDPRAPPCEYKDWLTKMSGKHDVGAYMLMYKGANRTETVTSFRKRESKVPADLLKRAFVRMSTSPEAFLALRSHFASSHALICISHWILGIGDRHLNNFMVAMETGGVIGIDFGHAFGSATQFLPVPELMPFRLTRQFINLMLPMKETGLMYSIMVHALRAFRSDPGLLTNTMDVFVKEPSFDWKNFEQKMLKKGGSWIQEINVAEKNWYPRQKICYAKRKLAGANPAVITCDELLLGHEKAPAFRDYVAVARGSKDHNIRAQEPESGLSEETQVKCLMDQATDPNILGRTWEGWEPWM
T8 sequence (P11802 2-303 limits assumed): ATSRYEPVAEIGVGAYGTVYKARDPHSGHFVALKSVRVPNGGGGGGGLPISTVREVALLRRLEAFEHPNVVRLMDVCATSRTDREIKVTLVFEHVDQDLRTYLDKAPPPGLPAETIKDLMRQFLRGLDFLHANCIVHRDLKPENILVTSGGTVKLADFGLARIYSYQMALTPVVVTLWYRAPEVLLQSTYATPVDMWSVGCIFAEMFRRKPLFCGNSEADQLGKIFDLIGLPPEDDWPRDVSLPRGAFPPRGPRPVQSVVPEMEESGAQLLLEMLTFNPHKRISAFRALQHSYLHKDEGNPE

B1: i3XFLAG-NLS-CTDaa154-424 (other)
chain: MDYKDHDGDYKDHDIDYKDDDDKPPKRMRREPKKKRKVGRAPAQAGGLCSAAPGGGHPAPSWVAFAHTGAWGTGLPAPHVPCAPGALPQGAFVSQAARAAPALQPSQAAPAEGISQPAPARGDFAYAAPAPPDGALSHPQAPRWPPHPGKSREDRDPQRDGLPGPCAVAQPGPAQAGPQGQGVLAPPTSQGSPWWGWGRGPQVAGAAWEPQAGAAPPPQPAPPDASASARQGQMQGIPAPSQALQEPAPWSALPCGLLLDELLASPEFLQQAQPLLETEAPGELEASEEAASLEAPLSEEEYRALLEEL
notes: Doxycycline-induced in MB135 cells for co-IP; also called longCTD; iDUX4-CTD
Consider B1, for which the PSMs in assay [1] came out at 2 PSMs; in assay [2], 37 PSMs; in [3], 7 PSMs; in assay [4], 1 PSMs; in assay [5], 5 PSMs; in [6], 2 PSMs. The PSMs in [7] turned out to be 7 PSMs; in assay [8] it was 2 PSMs; in assay [9] it was 3 PSMs; in the assay with Nucleolin, 1 PSMs; in [10], 11 PSMs; in [11] it was 19 PSMs. For the same molecule, the PSMs in assay [12] was found to be 1 PSMs; in [13], 5 PSMs.
